assay: soluble on expression in E. coli; label from the status in PepcDB or PDB records

Sequence	soluble on expression in E. coli
MPEVVFYPQNKSINVEEGTTILQAARSAGVIIESPCNGTGTCGKCKVRLDEKSLPNVLAKSRHYLSKEEEEQGYVLACETQITGDIKVELGENKQNGTLKILSRGHSFNIDLKPFIRKEYFVHEDVTKVFAGKEQLGIEAGDTTKENYGAVVDIGTTTLVASIVNLNNGDEIGTSSALNPQAVHAQDVLSRIKFSSDADGLKVMHSELTDKINSMIGKIALRAGISKEHIYEIVFSGNTCMLHLASNTCPESLGKYPYTPKISGAAYLDAAKYNIDISPFGIIYLPPIISAYVGADIVSGILASQLHEKDGVILFVDIGTNGEMVLASCGNLSATSTAAGPAFEGMNITCGMRAGEAAIEFFEIEEQGSINIKVIGETEAAGICGSGLLDMVGEFAAHGVIKKNGQFIDPESENVLHPKLAERLVRQDGKWIFKVTDKVFLSQKDIRQVQLAKGAVRAGIEFLLENKGVRASDVDKVLIAGSFGYHLREKSLINIGLLPKEFEGKVEFVGNTSLSGAKAFLLNQTYREKMKETVKSVEVLELANYKDFDRVFVRCLSFLEHHHHHH	not soluble
MPFRTIARLNPAKPKAGEEFRLQVVAQHPNEPGTRRDAEGKLIPAKYINLVEVYFEGEKVAEARPGPSTSANPLYAFKFKAEKAGTFTIKLKDTDGDTGEASVKLELV	soluble
MPFSFFSRKKPSRRFNDFYEDWSKTLTENCLPLLRQSLSSAASASVLSSNVDLVLRHLVLYYETLDLAADHNTIPYLLFPSWRNSLETPFLFLGDIHPYLLTNLLRSFIDRENQDSDDEDEETSLDLVNQPLKMTMAWKDPSDELVKRIDQIECTMRLMVPGLMDRMRKTQRSFVARVSESWVSSYQVGKKKKLTATVATASTSVDEAAKIEMEELVSIFVDANRLRKSVIMDIVGATSEHQAALFLEGLCQFLAGFKDQILLQDFEILSLPN	soluble
MPGAMHDEPDHPELSITVPTLNEAEGLERFFAMLSAQQGVRFELVIADGGSTDGTPESARRLAAATPFAATVIETGRGRGRQMNAGAAAAAGDTLLFLHADCAFPDPLALRTALDAFTQTVAAGGSHRVAGHFRLRFERTDSAPSLPYYFYEWKARLHRPGCTHGDQGLLLGRRFFAEAGPFDESFPILEDVGLAERIAALGEWLLLPAEIVTSARRFEAEGLRERQTLNALLMNFAAMGWDPFLAELPRLYQSQDRAGRLLLGPVLRLIARLLRPLPRRERGRLWRETGRYVRANAWQIPFFLDVRRHFRQGTPVGEGETPRLDLHDRIFDRLTENGAGHRATALLVWIWFRLSLLREPLTPPAARNPEGNGSLEHHHHHH	soluble
MPGNSPHYGRWPQHDFTSLKKLRPQSVTSRIQPGSDVIVCAEMDEQWGYVGAKSRQRWLFYAYDSLRKTVVAHVFGERTMATLGRLMSLLSPFDVVIWMTDGWPLYESRLKGKLHVISKRYTQRIERHNLNLRQHLARLGRKSLSFSKSVELHDKVIGHYLNIKHYQLEHHHHHH	soluble
MPHKNTKSNVQKITASVASVIVSTGIVMNSSNRRVKATGKREDEIVEVESLKRADTETTKAAAVQTPKINQTKKMSHRTQKVTQMIHYVDEDERPVYDDYTASLIFEQTGILDNVTGKQTWNSNWLPKTTATFSAVEHPVVRNHHLVNPEINEVSAYDVEVTDDTFKNPLLKVHKVVYAHDIEPIKRTQVVTQTIHYRYEDGAVAHDDHVVSLIFTQSGKRDLTNGKEIWDSKWSLTQTFEALPSPVIIGYTADKPMVGPDEVTVDSKNFLDKQNREETVIYSANTITQNKKDGISEEKNVNNSVAVAPLKSAVMIGGVISILKFKRLMVIIKNKKDHKLEHHHHHH	soluble
MPILKHLLLKNRKQPMQKKFVATAVGYVPWGDGAAEYFYNLYEYEDGTRECEKFDGGQYYKIPENADFSTKAQVKAWIYGGAVPKSVLSYEALIDEMNENIKQRSQAGGEIDRQLEEALDKQLGRYKNNKKIKNYRKQLNLKHDSSALFLDGEEIYSVTACRINQKI	not soluble
MPILTIREVCNINHWGIGYYDVDDSGEIIVRPNPSQHNQTVSLQKLTEAVQQKHQARLPVLFCFPQILEHRLRDINRAFQTAREECGYKGGYCLVYPIKVNQHRRVIESLMSSGQPHGLEAGSKAELMAVLAHAGNRQTLIVCNGYKDREYIRFALMGEKLGHQVYLVIEKLSEIQMVLEEAEKLGIKPRLGVRARLASQGSGKWQSSGGEKSKFGLSASQVLQLVDILKQKNRLDCLQLLHFHLGSQLGNIRDVATGVHESARFYVELHKLGVNIRCFDVGGGLGVDYEGNRTQSDCSVNYSLNEYAATVVWGISQACLEHGLPHPTIITESGRGITAHHAVLVANVIGVERYKPRRLDAPSPEAPRVLHSMWETWTDISASREKRSLRSWIHEGQFDLADVHNQYNVGLLSLAQRAWAEQLYLNICHEVGELFNEKHRSHRTIIDELQERFADKLYVNFSLFQSLPDAWGIDQLFPVCPITGLNEPIARRAVLLDITCDSDGTIDHYIDGDGIAGTMPMPDYPEEEPPLLGFFMVGAYQEILGNMHNLFGDTATADVVVGEDGQFTVIDYDEGNTVADMLEYVYQDPKELMKRYREQIEHSDLPASQAMSFLKELEAGLNGYTYLEDE	not soluble
MPITNASPENILRYLHAAGTGTKEAMKSATSPRGILEWFVNFFTCGGVRRSNERWFREVIGKLTTSLLYVNKNAFFDGNKIFLEDVNGCTICLSCGAASENTDPMVIIEVNKNGKTVTDKVDSERFWNVCRMLKLMSKHNIQQPDSLITEDGFLNLRGVNLAHKDFQGEDLSKIDASNADFRETTLSNVNLVGANLCCANLHAVNLMGSNMTKANLTHADLTCANMSGVNLTAAILFGSDLTDTKLNGAKLDKIALTLAKALTGADLTGSQHTPTPLPDYNDRTLFPHPIF	not soluble
MPKASDIKKGSAIEHNGKVFFVKEISKLTPSGRAGATLFRMRMYDVATGAKSDESFKADDMINLADFSRRSATFSYVDGNEYVFMDSEDYTPYNFNKEAIEEELLFITEETQGLQILIVDGAPVAIELPSAVDLEIVETAPSIKGASASARTKPATMTTGLTVQVPEYIANGEKVKINTTEHKFMSRALEHHHHHH	not soluble
MPKATFYTHVAQVPIFTCRLIARAIRDGGRILVWSDSFGQLQELDKMLWQYEAESFIPHEIWETEEAMPSEPSVLLACGGNLPRIPEGMTVLNLSDGFWNTAPVLPARVLEIVGNSLEELADARERFTAYRRSGFAIEHHGMEGKA	not soluble
MPKDELPNHNCIKHLRSVVQQQQSRIAELEKTRAEHKHQLAEQKRDIQLLKAYMRAIRSVNPNLQNLEETIEYNEILEWVNSLQPARVTRWGGMISTPDAVLQAVIKRSLVESGCPASIVNELIENAHERSWPQGLATLETRQMNRRYYENYVAKRIPGKQAVVVMACENQHMGDDMVQEPGLVMIFAHGVEEI	not soluble
MPKDWDAFYRNAPEDRPPAFVVRAYGPFVPQGPVLDLAGGLGRNARYFLQRGHPVVLVERSREALRRLSGTPGLTLVALDLEGADAPQSLPQGPFAGIVMAYYVNRPLLQGLAPLLLPGGLVLVEGFSRKEALRRGRPHSPFYWEGEELLTPPPGLALRAFGEGWMEGYRVYAVYLRP	soluble
MPKEILMPELAESVVEGEILKWLVEEGDYLKKDQPFVEVMTDKVTVELPSPYEGVLLKKLAKEGEVVKVHAPIALIAEPGEAVEGVKEAPPVQAVEERSIVEPGLPAKEEKEDLSLFKPDPTQVAVKNPFLSGEKPQEGARPGRVLAVPAARKLARELGIPIEEVPGSGPLGRVRVEDVRAYAERRKAPPERPEEGPQVLPAGFPPPPKYAPPKGYEHLEERVPLRGIRRTIAQGLWQSHLYTVRTLNVDEADLTELVRLRERLKPQAEAQGVKLTYLPFIVKAVVRALKKFPMLNTSLDEERQEIVYKRYYHIGLAVATERGLIVPVVRDADRKSVLELAQEIAELSQKAREGRLAPEEVTGSTFTITNIGSVGATLSFPIIHLPDAAILGVHSIRKRPWVMPDGSIRPRDIMFLSLSFDHRLVDGAEAAMFTREVIRLLENPDLLLLEM	soluble
MPKETPSKAAADALSDLEIKDSKSNLNKELETLREENRVKSDMLKEKLSKDAENHKAYLKSHQVHRHKLKEMEKEEPLLNEDKERTVLFPIKYHEIWQAYKRAEASFWTAEEIDLSKDIHDWNNRMNENERFFISRVLAFFAASDGIVNENLVENFSTEVQIPEAKSFYGFQIMIENIHSETYSLLIDTYIKDPKESEFLFNAIHTIPEIGEKAEWALRWIQDADALFGERLVAFASIEGVFFSGSFASIFWLKKRGMMPGLTFSNELICRDEGLHTDFACLLFAHLKNKPDPAIVEKIVTEAVEIEQRYFLDALPVALLGMNADLMNQYVEFVADRLLVAFGNKKYYKVENPFDFMENISLAGKTNFFEKRVSDYQKAGVMSKSTKQEAGAFTFNEDF	soluble
MPKGGPSGLSPVYAGIREDLDTLLRAYLQFKSVRFYDYKMMFERRGMVDIFNGRSESSEIIEFNEHLLVQCLSYMEEEACPGMPRSLKERLFGLYSLYTFFFIQQESHVVQIRMNPDCARNFRKFAQFLLVEKIYDAYVHDPCYAKSNQTDEKSHGVPVLANLNDPLCRVKALTEQFDMLGVIHREYSKLKDKFGITGNPLNDPTEILSRVIEKNLKAIEDSAIEKVFDVDQDEQSSVDALSSDGDDEETEKDPDIAENDDNVEETIEPSLPSRKRKRKRRQSKTVPISDPEVLDDLFAREILRDNQPTTSDDSAQRMNVDSKIVPGRKKSRKMSAKKAKINLPRIVKSEQIPPLRGIMKNEDLNNSESCIHENVDIVLTQSDSLKNEIKSEIVALNSSTKTSFKSSRRVSFREKENGELDNTIHEIPRRCHSSDESDEENSDEDPVAESSHRPHLTIQLKPIHEKYETSISMNLIYMKNKEKLISADDFNIFKPVEGAEETFETPFDSLIPEDIDSDDEI	not soluble
MPKKRTPYETWRKNIRPIIWKRDNKQCIRCKKTVLLSECHIDHIISGLHGDNRLQNLRTLCRRCHVLRSDRLHRGMIAKALKDGVITADWRQYVWEEESLLKRLEHHHHHH	not soluble
MPKLHMFYLGGNAGRSNIEVHDIQFAVCDNYREAVPALKAAWFGDADKIHIDGWQIVEWADGYDIAVSETPKTKMPSEHAPRLYFANVGGYRAGQLAEAHAFGLFAAATPAEAKQKALQTLLTDSYVQQHKDNLKDVDNLLALDRIGNFHIRLTPNPHGKPAEIGFQGYLPI	not soluble
MPKLTIEGAGTFDVKEGTKLVLAIEDSGVNILHRCGGNARCTTCRVEILAGDFCEASANEKHAMTEKGIEDHLRLSCQMRVHKDIVVRPVLTVENSGLDAGPRPAE	not soluble
MPKWGNINERRNQLHEVIRLSGMNLIIDDTDHPLIIKVASIQSARMQVYFIDNDDYFQNRLQTADENGVEYDDNDSRAIFYARGVLETVKKLRWCPDVIHCHGWMTALAPLYIKKAYKDEPSFRDAKVVFSVYEDDFKGTFNNDFASKLMLKGINKKDVATLKDPVDYATLCKLAVDYSDGIVQNSEHVNEDVMNYARQSGKLVLDYQAPDALADACNSFYDQVWEAEQK	not soluble

From the DeepSol protein solubility set
